Measurements published in paper PMC12102759.

B1: PIP5K1C peptide 640-655 (Phosphatidylinositol 4-phosphate 5-kinase type-1 gamma), 16-mer library wild type / TLN1 PTB (TLN1 Phosphotyrosine-binding (PTB) domain, residues 309-401) (parent)
chain 1: FPTDERSWVYSPLHYS
chain 2: GVSFFLVKEKMKGKNKLVPRLLGITKECVMRVDEKTKEVIQEWNLTNIKRWAASPKSFTLDFGDYQDGYYSVQTTEGEQIAQLIAGYIDIILK
B2: RNF115 peptide 67-82 (E3 ubiquitin-protein ligase RNF115), 16-mer library wild type / MDM2 SWIB (MDM2 SWIB/MDM2 domain, residues 17-125) (parent)
chain 1: TTTHFAELWGHLDHTM
chain 2: SQIPASEQETLVRPKPLLLKLLKSVGAQKDTYTMKEVLFYLGQYIMTKRLYDEKQQHIVYCSNDLLGDLFGVPSFSVKEHRKIYTMIYRNLVVVNQQESSDSGTSVSEN
B3: TPTE2 peptide 92-107 (Phosphatidylinositol 3,4,5-trisphosphate 3-phosphatase TPTE2), 16-mer library wild type / TLN1 PTB (TLN1 Phosphotyrosine-binding (PTB) domain, residues 309-401) (parent)
chain 1: LADLIFTDSKLYIPLE
chain 2: B1 chain 2
B4: PAIP1 peptide 124-139 (Polyadenylate-binding protein-interacting protein 1), 16-mer library wild type / PABPC1 PABC (PABPC1 PABC domain, residues 544-623) (parent)
chain 1: LMSKLSVNAPEFYPSG
chain 2: PLTASMLASAPPQEQKQMLGERLFPLIQAMHPTLAGKITGMLLEIDNSELLHMLESPESLRSKVDEAVAVLQAHQAKEAA

Variants of: B1
Assay: proteomic peptide phage display deep mutational scan (ProP-PD DMS): M13 P8 16-mer library selected against immobilised GST-tagged bait for four days (rounds), NGS of the eluted pools per day and pseudo-replica
Conditions: with TLN1 PTB (TLN1 Phosphotyrosine-binding (PTB) domain, residues 309-401); bait immobilised on MaxiSorp plates (10 µg), library pre-cleared on GST, 2 h binding at 4 °C, five washes; one round per day, days 1-4; value from days 2 and 3; keep out of graded; scale: average fractional NGS count over selection days 2 and 3
chain 1 L13W was tested, and the screen value was 0.00176.
Work on chain 1 L13V yielded a screen value of 0.00019.
Work on chain 1 L13S yielded a screen value of 0.000183.
With chain 1 L13I the screen value was 0.000497.
Work on chain 1 L13G yielded a screen value of 0.000132.
In the case of chain 1 L13F, the screen value is reported as 0.00025.
With chain 1 E5H the screen value was 0.000485.
chain 1 E5Y showed a screen value of 0.000182.
chain 1 E5V showed a screen value of 0.00021.
chain 1 E5N showed a screen value of 0.00102.
In the case of chain 1 E5I, the screen value is reported as 0.000716.
chain 1 E5W was tested, and the screen value was 0.000904.
In the case of chain 1 E5S, the screen value is reported as 0.000272.
In the case of chain 1 E5F, the screen value is reported as 0.000369.
Variant chain 1 E5K has a screen value of 0.000102.
In the case of chain 1 E5A, the screen value is reported as 0.000188.
In the case of chain 1 E5G, the screen value is reported as 0.000212.
chain 1 E5T showed a screen value of 0.000451.
For chain 1 E5P, the screen value was 0.00165.
For chain 1 E5Q, the screen value was 6.1e-05.
For chain 1 E5M, the screen value was 0.000263.
chain 1 E5L showed a screen value of 0.00192.
In the case of chain 1 R6I, the screen value is reported as 0.000686.
For chain 1 R6F, the screen value was 0.
chain 1 R6P gave a screen value of 0.000213.
chain 1 R6D was tested, and the screen value was 0.000455.
chain 1 R6K was tested, and the screen value was 9.21e-05.
Variant chain 1 R6Y has a screen value of 0.000115.
With chain 1 R6N the screen value was 8.35e-05.
chain 1 R6G gave a screen value of 5.92e-05.
chain 1 R6E showed a screen value of 0.
chain 1 R6W gave a screen value of 0.000249.
In the case of chain 1 R6M, the screen value is reported as 0.00014.
chain 1 R6S was tested, and the screen value was 0.00302.
chain 1 R6V gave a screen value of 0.000984.
Work on chain 1 R6T yielded a screen value of 0.000205.
Work on chain 1 R6H yielded a screen value of 3.76e-05.
chain 1 R6A gave a screen value of 0.00241.
In the case of chain 1 R6Q, the screen value is reported as 9.86e-05.
Variant chain 1 R6L has a screen value of 0.000156.
chain 1 S11P gave a screen value of 7.58e-05.
chain 1 S11L gave a screen value of 0.
chain 1 S11A gave a screen value of 7.18e-05.
chain 1 S11I showed a screen value of 0.
chain 1 S11D gave a screen value of 0.
chain 1 S11M gave a screen value of 3.45e-05.
In the case of chain 1 W8G, the screen value is reported as 0.
chain 1 W8F was tested, and the screen value was 7.15e-05.
With chain 1 W8D the screen value was 0.

Variants of: B2
Assay: as above
Conditions: with MDM2 SWIB (MDM2 SWIB/MDM2 domain, residues 17-125); bait immobilised on MaxiSorp plates (10 µg), library pre-cleared on GST, 2 h binding at 4 °C, five washes; one round per day, days 1-4; value from days 2 and 3; keep out of graded; scale: average fractional NGS count over selection days 2 and 3
With chain 1 L8P the screen value was 1.29e-05.
Work on chain 1 L8N yielded a screen value of 0.
chain 1 L8Q showed a screen value of 0.
In the case of chain 1 L8A, the screen value is reported as 0.
Variant chain 1 L8E has a screen value of 4.72e-05.
In the case of chain 1 A6R, the screen value is reported as 0.
chain 1 A6T was tested, and the screen value was 0.00014.
Work on chain 1 A6P yielded a screen value of 3.8e-05.
In the case of chain 1 A6F, the screen value is reported as 0.000296.
chain 1 A6Y gave a screen value of 0.000156.
In the case of chain 1 A6N, the screen value is reported as 0.000134.
In the case of chain 1 E7G, the screen value is reported as 0.
chain 1 E7W gave a screen value of 5.37e-05.
chain 1 E7Y was tested, and the screen value was 0.
chain 1 E7S was tested, and the screen value was 0.
In the case of chain 1 E7L, the screen value is reported as 7.08e-05.
chain 1 H14D was tested, and the screen value was 2.82e-05.
In the case of chain 1 H14K, the screen value is reported as 0.000119.
Work on chain 1 G10F yielded a screen value of 3.49e-05.
chain 1 G10V gave a screen value of 7.22e-05.
Work on chain 1 G10R yielded a screen value of 2.89e-05.
Work on chain 1 G10E yielded a screen value of 8.15e-05.
chain 1 G10H was tested, and the screen value was 5.57e-05.
chain 1 G10K gave a screen value of 0.
chain 1 D13K showed a screen value of 0.
For chain 1 F5A, the screen value was 0.
Variant chain 1 F5D has a screen value of 0.
Variant chain 1 F5R has a screen value of 0.
With chain 1 F5N the screen value was 0.
chain 1 F5K showed a screen value of 0.
chain 1 H4R gave a screen value of 1.9e-05.
With chain 1 H4W the screen value was 2.47e-05.

Variants of: B3
Assay: as above
Conditions: with TLN1 PTB (TLN1 Phosphotyrosine-binding (PTB) domain, residues 309-401); bait immobilised on MaxiSorp plates (10 µg), library pre-cleared on GST, 2 h binding at 4 °C, five washes; one round per day, days 1-4; value from days 2 and 3; keep out of graded; scale: average fractional NGS count over selection days 2 and 3
chain 1 D8M showed a screen value of 0.
Variant chain 1 D8K has a screen value of 2.8e-05.
chain 1 D8V gave a screen value of 7.58e-05.
chain 1 D8S gave a screen value of 4.41e-05.
chain 1 D8H gave a screen value of 2.4e-05.
For chain 1 S9K, the screen value was 0.
chain 1 Y12Q gave a screen value of 0.
With chain 1 Y12L the screen value was 0.
chain 1 I13Q was tested, and the screen value was 8.06e-05.
chain 1 I13D gave a screen value of 0.
chain 1 I13M showed a screen value of 3.76e-05.
chain 1 I13Y was tested, and the screen value was 5.85e-05.
chain 1 I13H gave a screen value of 7.12e-05.
With chain 1 I13S the screen value was 9.27e-05.
In the case of chain 1 I13W, the screen value is reported as 0.000116.
Variant chain 1 K10V has a screen value of 7.83e-05.
With chain 1 K10W the screen value was 6.74e-05.
chain 1 A2V gave a screen value of 0.000107.
For chain 1 A2F, the screen value was 2.74e-05.
In the case of chain 1 D3F, the screen value is reported as 9.05e-05.
In the case of chain 1 D3W, the screen value is reported as 0.
In the case of chain 1 D3H, the screen value is reported as 0.000117.
chain 1 D3A was tested, and the screen value was 4.9e-05.
chain 1 L11Y gave a screen value of 4.09e-05.
chain 1 L11A gave a screen value of 6.5e-05.
Variant chain 1 L11W has a screen value of 0.
With chain 1 L11S the screen value was 3.91e-05.
Work on chain 1 L11F yielded a screen value of 0.000112.
chain 1 F6M gave a screen value of 0.
In the case of chain 1 F6G, the screen value is reported as 0.
Work on chain 1 F6Y yielded a screen value of 8.2e-05.
For chain 1 F6S, the screen value was 0.
chain 1 F6P showed a screen value of 9.98e-05.
Variant chain 1 F6A has a screen value of 0.
Work on chain 1 P14Y yielded a screen value of 7.88e-05.
chain 1 P14Q showed a screen value of 0.
chain 1 P14F showed a screen value of 0.
Work on chain 1 P14M yielded a screen value of 0.
For chain 1 P14R, the screen value was 0.
Variant chain 1 P14E has a screen value of 0.
In the case of chain 1 P14S, the screen value is reported as 2.74e-05.
For chain 1 T7E, the screen value was 8.56e-05.
chain 1 T7I showed a screen value of 3.48e-05.
With chain 1 T7A the screen value was 4.1e-05.
Work on chain 1 T7R yielded a screen value of 6.19e-05.
For chain 1 T7F, the screen value was 3.05e-05.
For chain 1 E16R, the screen value was 3.05e-05.
With chain 1 L4K the screen value was 6.56e-05.
With chain 1 L4R the screen value was 0.
With chain 1 L4N the screen value was 5.11e-05.
chain 1 L15E showed a screen value of 6.68e-05.
Work on chain 1 L15T yielded a screen value of 3.85e-05.

Variants of: B4
Assay: as above
Conditions: with PABPC1 PABC (PABPC1 PABC domain, residues 544-623); bait immobilised on MaxiSorp plates (10 µg), library pre-cleared on GST, 2 h binding at 4 °C, five washes; one round per day, days 1-4; value from days 2 and 3; keep out of graded; scale: average fractional NGS count over selection days 2 and 3
For chain 1 P10V, the screen value was 0.000185.
With chain 1 P10W the screen value was 0.
chain 1 S6Q was tested, and the screen value was 4.7e-05.
Work on chain 1 S6K yielded a screen value of 0.
In the case of chain 1 L5S, the screen value is reported as 0.
In the case of chain 1 L5Y, the screen value is reported as 5.13e-05.
For chain 1 L5V, the screen value was 0.
chain 1 V7L showed a screen value of 1.45e-05.
In the case of chain 1 V7K, the screen value is reported as 0.
In the case of chain 1 V7M, the screen value is reported as 0.
chain 1 V7T gave a screen value of 0.000112.
chain 1 V7I was tested, and the screen value was 0.00011.
chain 1 M2D showed a screen value of 9.64e-06.
With chain 1 M2H the screen value was 0.000247.
For chain 1 M2Y, the screen value was 0.
chain 1 M2F was tested, and the screen value was 1.57e-05.
With chain 1 M2R the screen value was 0.000185.
Work on chain 1 N8H yielded a screen value of 0.000197.
Variant chain 1 N8I has a screen value of 9.39e-05.
With chain 1 N8Q the screen value was 0.000156.
chain 1 N8K showed a screen value of 0.
Variant chain 1 N8V has a screen value of 0.000243.
chain 1 P14F gave a screen value of 0.000167.
Variant chain 1 P14T has a screen value of 8.32e-05.
Work on chain 1 P14S yielded a screen value of 0.000163.
chain 1 P14N was tested, and the screen value was 0.
With chain 1 P14H the screen value was 4.17e-05.
With chain 1 Y13P the screen value was 0.
In the case of chain 1 Y13N, the screen value is reported as 3.07e-05.
In the case of chain 1 Y13F, the screen value is reported as 8.82e-05.
For chain 1 S15L, the screen value was 0.000141.
Work on chain 1 S3F yielded a screen value of 4.71e-05.
Work on chain 1 S3R yielded a screen value of 0.
chain 1 S3Y showed a screen value of 0.00023.
